The record followed here is patent US20030077290A1 (PHADIA, published 2003).

The experiment has as its target basophil-bound IgE of a grass pollen allergic patient. As to the kind of experiment: cell-based or functional assay.

For GKATTEEQKLIEDINASFRAAMATTANVPPADK [rPhl p 6 aa 1-33], the “reduction of histamine release compared to complete rPhl p 6” value is about 1000 fold.
